Test results taken from the DeepSol protein solubility set.

assay: soluble on expression in E. coli; label from the status in PepcDB or PDB records

Soluble on expression in E. coli, not soluble:
MGSDKIHHHHHHMALDGYTDQTMSRQAMRAELLDAETELRLAYAWRDQRDERALHRLITAYMRLAISMASKYRRYGAPMNDLIQEASLGLMKAADKFDPDRGVRFSTYAVWWIKASIQDYVMRNWSLVRTGSTSSQKALFFNMRRVQARLEREASQRGEALDAHQLREMVAHDVGVPLSDVEMMEGRLSGSDFSLNATQSADDEGREWIDALEDDSAQAAEVVEGSLDAARLRGWLVSAMQQLNARERFIVTERKLRDVPRTLESLGEELKLSKERVRQLEAAAFAKMRRSLEAQSREVHHFLL
MGSDKIHHHHHHMALIRINFMAASLHRTVPLMVCLPTDKLVPDEQGVPRPIQGPFATLYLLHGILGSEVDWISGTRIQRWADERNLAVVMPAGENSFYTDHPWSGETYSQFIGQELIDFTRRTFPLSHQRDQTFIGGLSMGGYGALYNGLKFHDIFGAIVSLSAGLNVRPGMEKLPAKPQWFAETAAYQHGVFGPDLAAAGHSELNPQVLVTKLLAAHVALPAIFMAIGDQDGLKPANDEFDHFLTAKKVSHEYVVGSGAHEWDFWDRYLLKALNWLPLTNQGAGVNSGHIKAN
MGSDKIHHHHHHMALKDIISQVYRRLFNVIATVCPVRKHVVLFEAFNGKVPMDNPLYVYEALQTAHPDWKLVWSVKRQLVVEAQEKYPKLNIIPRFSAKWLLVAPVAEFWVLNARMPYWLKKNAKTTYIQTWHGTPLKRLGIDIPKVSMPGTDTSQYRQNFTAESKRWDYLIAPNQFSKDVFRRAFDFNNQFLDYGYPRNDRLVHQRQDYDAIAAIKKRIVGNKMGKVILYAPTWRDDFFIRKGMYKMNLPFSLAAVVKRLNKEDVLIIRPHYLVAESINIQGFEDNVKLCVDEDINDLYLISDLLITDYSSVMFDYAILNRPMLFYPYDLAHYQGDVRGFYFDYNKVPGPIVTNEQDFLAKLDQFLTNDGYPNETAKMMAFRTQFTEWEQGTASQRVVKLITSIDQNANNYTG
MGSDKIHHHHHHMALKDYAIEKEKVKKFLQEFYYENELGKKQFKYGTQLVHLAHREQVALYVDLDDIAEDDPELVDSICENAKRYSRLFGDVVQELLPEYKEKEVVNKDVLDVYIEHRLMMEQRSRDPGAVRNPQNQYPSELMRRFELYFRGPSSSKPRVIREVRADSVGKLLTVRGIVTRVSEVKPRMVVATYTCDQCGAETYQPIQSPTFMPLIMCPSQECQTNRSGGRLYLQTRGSKFVKFQEMKIQEHSDQVPVGNIPRSITVVLEGENTRIAQPGDHVSVTGIFLPVLRTGFQQMAQGLLSETYLEAHWIVKMTKSDDDVSGAGELSSEELKQIAEEDFYEKLAASIAPEIYGHEDVKKALLLLLVGGVDQSPQGMKIRGNIHICLMGDPGVAKSQLLSYIDRLAPRSQYTTGRGSSGVGLTAAVLRDSVSGELTLEGGALVLADQGVCCIDEFDKMAEADRTAIHEVMEQQTISIAKAGILTTLNARCSILAAANPAYGRYNPRRSLEQNVQLPAALLSRFDLLWLIQDRPDRDNDLRLAQHITYVHQHSRQPPAQFEPLDMKLMRRYIAMCHERQPTVPESLADYITAAYVEMRREARASKDATYTSARTLLAILRLSTALARLRMVDIVEKEDVNEAIRLMEMSKDSLLGEKGQTARTQRPADVIFATIRELVSRGRSVHFSEAEQRCISRGFTPAQFQAALDEYEELNVWQVNTSRTRITFV
MGSDKIHHHHHHMALQWVKRTIKAGAALAGCVLVVTALDPARGSVDAKERVKGIVAAAAMSPAGIPFELAAQEIATIGTRPMAERLSISGELQPVNRVLIRAREAGKILEMNVREGQAVRAGDMLVRFETDELQSTLLLRQSDRDAAEAELMLAMQALARTEQLAAKNIASTEQLDKAKSDVVVKTTRVQSLSSQVDIARLALRNAEIRAPFDGTVTRRVAETGARIGADGELLTLVDTSELEAKVLVATRDIPRVARGQTAELEIDGLAGQIVKGTVERISPVAEDGTRVVAVYLRLANRDGQLWGGMFAGGSILLREKNDALVVPAIALRKDETGYHVLKIQDGHLRRQTVAVGPRWNGGSLIEIGAGLADGETILTVPLPELRPDMAVTIDKAG
MGSDKIHHHHHHMALVRLSQIHFNFQTAAQPLFEDLNLTIAAGECHLIHGYTGCGKSTLLKLLQGILERPWEGEREIAEGATLGVVMQDPNVQLLRQTLGAEVAFALENLGVASSEMLLQVRSALRRVGLYISLDTPIASLSLGQRYRLMIAAQLVLEPDLLLLDEPWAQLDDQGVAELSAVLHQLKQQGVALLIVEHHRGVFKDLVTHRWQLSQGQLQALAPAECEATSEQVSWRESPAWPQGSAVIDSHGFTLAFRERQKLFDADSLLLFPGEIAALVGDNGCGKSTLLKSLAGIQADIDPLGIKVFGKKPKLGRFGADLALLHQRPSRQLFENTVIEEMQFSLKRFGLPLERAIELLGQLGLTTLARHSPHTLSYGQQHLIALASLACLRPKLLLLDDPFAGLDEHFTDKIVALLTELSRQGTALVIASHRPIAALPVDRLWRVVDGRLESLSASPQAYSRVG
MGSDKIHHHHHHMALYEPFPNYIWNLSVSIAMESGGQIGEIVDMCQPIIDAASNGGDAGTPQFMKQWAAYGDKLIALAAEDEARGRMFSASNKLERASLYLLVAERMQGHGAPGRKESYAKARDAFDKSTALGKINRERVEIPLGKGTMPALYTRAPGNGPHPVVVYCNGLDSCKELLYWSRLPEALARRGISTICVDQPGSGEALRLQDLPVDPHSENWASKAVDWLEQQPDVDPKRIGMTGISLGGHFAPRAVAYEPRFASGAVWGANHNWREVQDKRLKREGENPVPHYWAHVMWAFGASDMDDFMVKSEDMNLNGHMDRIKVPFLVTHGADDRQISVSYADDLYDQLVNSPRREKVIFTAREGGVEHVGADNMAYGRDCIADWFAETLGGTTA
MGSDKIHHHHHHMAMEHVDVLIVGAGLSGIGAAYHLQKHCPGKTYAILEGREAIGGTWDLFRYPGIRSDSDMYTLGYSFKPWKAAKAIADGPSILDYVRETAREHDIDRHIRFQHLVKRASWSSETATWTVEAEHDGKPVTLTCRFLHMCSGYYRYSAGYTPDFAGTERFKGRIVHPQHWPEDLDYSGKKVVVIGSGATAVTLVPEMAKTAAHVTMLQRSPTYVVSRPAEDGIANWLRSKLPAMTAYGITRWKNVLFQLFFFNLARKKPEKVKERLLGMVRDHLGPGYDVETHFTPRYNPWDQRLCLVPDADLFDAIKSGAASVVTDHIETFTETGIQLKSGKTLDADVIVTATGLQLQLLSGMEVVVDGKVADLSQSMSYKGMMFSDVPNLASVFGYTNASWTLKADLTSEYVCRLLNHMDRTGADYCVPRLDGEVEAAPWLDFSSGYITRSIGHFPKQGTRKPWKVHQNYALDLMTLRMGKVEDGVMQFGRKTGATAKAKPEKALEPA
MGSDKIHHHHHHMAMTQTENQTAPQQHIRIFDTTLRDGEQSPGVALNHAQKLEIAHTLARMGVDVIEAGFPIASPGDLEGVSRIAREVRGPVITALARANRADIEAAAKGVEAAEKSRIHTFIATSPIHMQKKLNLEPDAVIERAVEAVRLARQYVDDVEFSAEDATRSEWDFLSRIFKAAVEAGATTINVPDTVGYTTPEEMRKLFAYLKAKLPAHVILSSHCHDDLGMAVANSIAAAEGGARQIECTINGIGERAGNASLEEIVMAFHTRRDVYGYETGIRTRELYRASRLVSRLSGMPVQPNKAIVGDNAFAHESGIHQDGVIKARETYEIMNAELVGREAAVLVMGKHSGRAAFRKALTDLGYGDIPDDKVQHLFGRFKDLADRKGQIYAEDLRALVDARSDVPQTFSLEGFQITSGMNMMPVAFVRLHTPDGPVDATAHGDGPVEAAFQAISKITGISPTLESYRIQSVTRGDDALGEVSIHVRHGETQLNGTGVATDIVEASARAWIRVMNMIVAGMGKNKAITQMTP
MGSDKIHHHHHHMANIYPKRAIYCACAKTRKQRRSSYMSNERYNLRGVSASKEDVHAAIKNVDKGIFPQAFCKIIPDILGGDPDYCNIMHADGAGTKSSLAYVYWRETGDLSVWKGIAQDALIMNIDDLLCVGAVDNILVSSTIGRNKRLIPGEVVSAIINGTEELLADLRRMGVNAYATGGETADVGDLVRTIIVDSTVTCRMKRSDVIDNARIKAGDVIVGLASFGQASYEEQYNGGMGSNGLTSARHDVFAHYLAEKYPESFDPSVPDDLVYSGSMKLTDAIAGLGLDAGKLVLSPTRTYAPVVKAILDEMSRRIHGMVHCSGGAQTKVMHFVKNKRVVKDNFFPTPPLFELIQRESLTEWSEMYKVFNMGHRLEVYLSEENASHVIEISESFGIPARIVGRVEEAPTNELILQTPYGEIRY
MGSDKIHHHHHHMANNNGKDKSLESWIWDAACSIRGAKDAPKYKDYILPLIFTKRLCDVFDDELNRIAAEVGSRKKAFQLAKADHKLVRFYLPLVPDDPEQPVWSVIRKLSDWIGEGVTSHMRAIARENPLLQGIIDRVDFNATTHGQRDLDDDRLSNLIEAISTKRLGLEDVEADIIGKSYEYLIRKFAEGGGQSAGEFYTPPEVGTIMSRVLQPEPGMEIYDPTCGSGGLLVKCEIAMEETAKGKKRTVAPLKLFGQEFTPETWAMANMNMIIHDMEGQIEIGDTFKNPKFRSKGKLRTFDRVVANPMWNQDWFTEADYDNDELDRFPAGAGFPGKSSADWGWVQHIHASMNATGRAAVVLDTGAASRGSGNAGTNKEKTVRQWFVDHDLIESVLYLPENLFYNTTAPGIVLFLNKAKAHERKGKVFLVNASQVFEKGDPKNFIPEAGIQRIADTLIGWVEAEKLSRIVDHAELKKNDYNISPSRYIHTSDAETYRPIAEIVEELEAIEAEAKETDQALDRILKQLGIGA
MGSDKIHHHHHHMANQLILLKKDFFTDEQQAVTVADRYPQDVFAEHTHEFCELVMVWRGNGLHVLNERPYRITRGDLFYIRAEDKHSYTSVNDLVLQNIIYCPERLKLNVNWQAMIPGFQGAQWHPHWRLGSMGMNQARQVINQLEHESNGRDPLANEMAELLFGQLVMTLKRHRYATDDLPATSRETLLDKLITALANSLECPFALDAFCQQEQCSERVLRQQFRAQTGMTINQYLRQVRICHAQYLLQHSPLMISEISMQCGFEDSNYFSVVFTRETGMTPSQWRHLSNQSD
MGSDKIHHHHHHMARINLEQLSTFLAVVRLGGVRRAATSLNLTQPAVTARIKNLEDNLDCELFDRTQSGMKLTKRGELLLGHAEKYEHLTQLVERDLVDPAGVEGRLRLGASETIAQCWLPDLVTRLHQLFPKLEIELVVDISANLRAGLMDRELDLAILLGPLSEFSVNNVELPDFELAWYAAADTSSEAIAASYLSRPVLTYPRNTRPYRELKEKLFEQAGPNFSLFPSSSLSACFRLVEADLGVAVLPRALGREYVLAGRIREFDPGWVPAPLRFTICYMGEPKSQLIETAAHMAREVAVDYHGDKNNL
MGSDKIHHHHHHMARQNKRQSDDRELARKFEELLKEGTPGFFDVSVYESIIQYYLEGTKFRKAHRTCDIAMEQHPYSVEIMLLKVQVLMQMTQFEEALEILDRAQLYQPNDTDIQLLRANIMAQQDDFEGAIELLEEILTLAEEKDEIHYHMGVIYQDMGNFEESINHLKEAIMLNSQHEDAIYELSYSLEVLDRLEESIDFFKQLIEKDPYSHFAWFCLGVSYFKQGKLDEALDAYEFVIAINDKYSSAYYNIGECYVYKNEYEKALEYFFQTMDMEDKTADVFYNIGFCYEHLGMHPKAIEFYRKASKADAYFHEAYYGIGKCLEAQDKSYESIHFFKRALKLDEANAEYWLAKANAEYKTGNIISSLEAFEEACVLEPSNPEVWKNWSFVHYESGDMDKAIDLINAGIDEMPGNADLYYRAVAYLITAGRYKEAFNYLENALTLNFDSHTVLFEFFPKLETQKALFRIIDQYRNK
